In patent US20240026344A1:

Target: AAV8 capsids (adeno-associated virus 8 (AAV8))
Assay: BLI (ForteBio), control ligand on sensor, AAV8 capsids 5x10^11 particles/mL, response after 4000 s

Non-binding ligand (control) (designed binder)
Response: 0.03
